T1: KIAA0001 receptor (Homo sapiens, UniProt Q15391)
T1 sequence (Q15391 1-338): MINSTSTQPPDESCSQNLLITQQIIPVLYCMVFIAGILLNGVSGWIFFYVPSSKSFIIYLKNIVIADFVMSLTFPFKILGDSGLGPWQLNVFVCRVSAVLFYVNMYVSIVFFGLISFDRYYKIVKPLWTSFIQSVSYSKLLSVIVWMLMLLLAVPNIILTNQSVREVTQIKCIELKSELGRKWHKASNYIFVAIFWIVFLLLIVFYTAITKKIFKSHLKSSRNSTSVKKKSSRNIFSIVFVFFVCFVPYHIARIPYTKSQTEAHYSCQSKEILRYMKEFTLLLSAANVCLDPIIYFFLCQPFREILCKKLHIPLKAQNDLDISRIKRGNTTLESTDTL

T2: SC-GPR (Homo sapiens, UniProt Q15391)
T2 sequence (Q15391 1-338): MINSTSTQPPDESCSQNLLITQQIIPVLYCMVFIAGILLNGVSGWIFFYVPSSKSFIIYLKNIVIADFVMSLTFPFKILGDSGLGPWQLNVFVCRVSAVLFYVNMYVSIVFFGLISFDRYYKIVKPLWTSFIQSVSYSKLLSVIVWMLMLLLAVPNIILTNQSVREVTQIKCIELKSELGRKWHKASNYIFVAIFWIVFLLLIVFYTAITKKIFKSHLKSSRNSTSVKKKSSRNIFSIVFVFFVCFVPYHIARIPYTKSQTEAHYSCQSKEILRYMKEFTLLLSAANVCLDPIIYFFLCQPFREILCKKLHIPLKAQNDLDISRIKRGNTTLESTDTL


Molecular target: T1, KIAA0001 receptor
Experiment: not given
Settings: Chambers et al., 2000 J Biol Chem; cited from earlier work

Molecule	binding to the receptor and induction of calcium flux
CC(=O)N[C@H]1[C@@H](OP(=O)(O)OP(=O)(O)OC[C@H]2O[C@@H](n3ccc(=O)[nH]c3=O)[C@H](O)[C@@H]2O)O[C@H](CO)[C@@H](O)[C@@H]1O [UDP-N-acetylglucosamine]	bind to the receptor and induce calcium flux
O=C(O)[C@H]1O[C@H](OP(=O)(O)OP(=O)(O)OC[C@H]2O[C@@H](n3ccc(=O)[nH]c3=O)[C@H](O)[C@@H]2O)[C@H](O)[C@@H](O)[C@@H]1O [UDP-glucuronic acid]	bind to the receptor and induce calcium flux

Molecular target: T2, SC-GPR
Experiment: Intracellular calcium flux (Fura-2) in Cos-7 cells expressing SC-GPR
Settings: Fura-2 loaded cells expressing SC-GPR, fluorescence ratio F340/F380

Molecule	calcium flux / activation of SC-GPR expressing cells
Nc1ncnc2c1ncn2[C@@H]1O[C@H](COP(=O)(O)OP(=O)(O)OP(=O)(O)O)[C@@H](O)[C@H]1O [ATP]	failed to result in activation
CCCCC/C=C\C[C@@H](O)/C=C/C=C/C=C\[C@@H](O)CCCC(=O)O [LTB4]	failed to result in activation
CCCCCCCCCCCCCCCCOC[C@H](COP(=O)([O-])OCC[N+](C)(C)C)OC(C)=O [PAF]	failed to result in activation
IL-8: known chemokine screened as potential SC-GPR ligand	failed to result in activation
MCP 1: known chemokine screened as potential SC-GPR ligand	failed to result in activation
MCP 3: printed as "MCP 1, 3, 4"; known chemokine screened	failed to result in activation
MCP 4: printed as "MCP 1, 3, 4"; known chemokine screened	failed to result in activation
MIP1a: known chemokine screened as potential SC-GPR ligand	failed to result in activation
PF4: known chemokine screened as potential SC-GPR ligand	failed to result in activation
RANTES: known chemokine screened as potential SC-GPR ligand	failed to result in activation
SDF-1: known chemokine screened as potential SC-GPR ligand	failed to result in activation
MIP1b: known chemokine screened as potential SC-GPR ligand (protein) APMGSDPPTACCFSYTARKLPRNFVVDYYETSSLCSQPAVVFQTKRSKQVCADPSESWVQEYVYDLELN	failed to result in activation
TARC: known chemokine screened as potential SC-GPR ligand (protein) ARGTNVGRECCLEYFKGAIPLRKLKTWYQTSEDCSRDAIVFVTVQGRAICSDPNNKRVKNAVKYLQSLERS	failed to result in activation

Source: patent publication US20120201792A1, “METHODS AND PRODUCTS FOR MANIPULATING HEMATOPOIETIC STEM CELLS” (The General Hospital Corporation, priority 2000, published 2012)
